This test concerns the target OP protein cage. As to the kind of experiment: cryo-EM structure; OP cages empty, with SDS (800 equiv.) or with SDS:CS, in TSEC buffer; octahedral symmetry imposed; rigid-body fit of the OP crystal structure (PDB 6FDB).

Take OP protein cage: the stoichiometry N (monomers per cage) is 24.

The record behind these values is article PMC7588467.
